Changes are numbered by the printed parent chain.
T1: human B-cell maturation antigen (BCMA) (human, UniProt Q02223 1-54, limits assumed)
T1 construct: also called CD269; TNFRSF17
T1 sequence (looked up): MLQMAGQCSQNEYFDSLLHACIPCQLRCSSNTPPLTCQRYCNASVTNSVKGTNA

B1: anti-BCMA heavy chain antibody clone ID 308837 (antibody, V domains shown)
VH: EVQLLESGGGLVQPGGSLRLSCAASGFTVSSYGMSWVRQAPGKGPEWVSGIRGSDGSTYYADSVKGRFTISRDNATNTLYLQMNSLRAEDTAVYYCAKQGGNDGPFDYRGQGTLVTVSS
notes: heavy chain-only antibody (UniAb)
B2: anti-BCMA heavy chain antibody clone ID 308806 (antibody, V domains shown)
VH: B1 VH with V29I, P45V, S57T, N74S, A75S, T76R, Y108H
notes: as for B1
B3: anti-BCMA heavy chain antibody clone ID 308912 (antibody, V domains shown)
VH: B1 VH with A40P, P45M, T76K
notes: as for B1
B4: anti-BCMA heavy chain antibody clone ID 308635 (antibody, V domains shown)
VH: B1 VH with P14A, A75S, T76K, Y95H, G101E
notes: as for B1
B5: anti-BCMA heavy chain antibody clone ID 308636 (antibody, V domains shown)
VH: B1 VH with L4V, A40P, P45M, Y59F
notes: as for B1
B6: anti-BCMA heavy chain antibody clone ID 308902 (antibody, V domains shown)
VH: B1 VH with A75S, T76K, G101E, Y108H
notes: as for B1
B7: anti-PSMA heavy-chain antibody clone ID 346172 (antibody, V domains shown)
VH: QLQLQESGPGLVKPSETLSLTCTVSGGSISSSSYYWGWIRQPPGKGLEWIGSIDYSGYTYYNPSLKSRVTISVDTSKNQFSLKLSSVTAADTAVYNCARHKAATADFDYRGQGTLVTVSS
notes: heavy chain-only antibody (UniAb/HCAb)
B8: anti-PSMA heavy-chain antibody clone ID 326109 (antibody, V domains shown)
VH: B7 VH with S32N, P42S, I50L, D54Y, Y55D, Y58S, Y60H, T70I, V73G, N96Y
notes: as for B7
B9: anti-PSMA heavy-chain antibody clone ID 346181 (antibody, V domains shown)
VH: B7 VH with S33N, Y35F, P42S
notes: as for B7
B10: anti-PSMA heavy-chain antibody clone ID 325920 (antibody, V domains shown)
VH: B7 VH with K66Q
notes: as for B7
B11: anti-PSMA heavy-chain antibody clone ID 346165 (antibody, V domains shown)
VH: B7 VH with I53V, K66Q
notes: as for B7
B12: anti-PSMA heavy-chain antibody clone ID 325748 (antibody, V domains shown)
VH: QVQLVESGGGVVQPGRSLRLSCAASGFSFSSYGMHWVRQAPGKGLEGVAVIWYDGSNRYYADSVKGRFTISRDNSKNTLYLQMNSLRAEDTAVYYCAREPRIGYYYESSGYYSLDYRGQGTLVTVSS
notes: as for B7
B13: anti-PSMA heavy-chain antibody clone ID 325932 (antibody, V domains shown)
VH: B12 VH
notes: as for B7
B14: anti-PSMA heavy-chain antibody clone ID 345444 (antibody, V domains shown)
VH: B12 VH with S28T
notes: as for B7
B15: anti-PSMA heavy-chain antibody clone ID 345447 (antibody, V domains shown)
VH: B12 VH with W52S
notes: as for B7
B16: anti-PSMA heavy-chain antibody clone ID 326087 (antibody, V domains shown)
VH: B12 VH with S28I, S30R, L45P, G47W, R58K, E107D, Y112D
notes: as for B7
B17: anti-PSMA heavy-chain antibody clone ID 326116 (antibody, V domains shown)
VH: B12 VH with S31R, W52S, R58K, N74Y, E107D, Y112D
notes: as for B7
B18: anti-PSMA heavy-chain antibody clone ID 345508 (antibody, V domains shown)
VH: B12 VH with L45P, G47W
notes: as for B7
B19: anti-PSMA heavy-chain antibody clone ID 345463 (antibody, V domains shown)
VH: B12 VH with S28I, S30R, L45P, G47W, R58K
notes: as for B7
B20: anti-PSMA heavy-chain antibody clone ID 326028 (antibody, V domains shown)
VH: B12 VH with S30R, G47W, W52S, R58K, N74Y, E107D, Y112D
notes: as for B7
B21: anti-PSMA heavy-chain antibody clone ID 345493 (antibody, V domains shown)
VH: B12 VH with S31R, G47W
notes: as for B7
B22: anti-PSMA heavy-chain antibody clone ID 345480 (antibody, V domains shown)
VH: B12 VH with G47W
notes: as for B7
B23: anti-PSMA heavy-chain antibody clone ID 345443 (antibody, V domains shown)
VH: B12 VH with Y80F
notes: as for B7
B24: anti-PSMA heavy-chain antibody clone ID 345421 (antibody, V domains shown)
VH: B12 VH with G8V
notes: as for B7
B25: anti-PSMA heavy-chain antibody clone ID 325867 (antibody, V domains shown)
VH: B12 VH with S30R, G47W, R58K, N74Y, Y112D
notes: as for B7
B26: anti-PSMA heavy-chain antibody clone ID 345510 (antibody, V domains shown)
VH: B12 VH with G47W, R58K, L79M
notes: as for B7
B27: anti-PSMA heavy-chain antibody clone ID 345438 (antibody, V domains shown)
VH: B12 VH with L45P, G47W, R58K
notes: as for B7
B28: anti-PSMA heavy-chain antibody clone ID 345505 (antibody, V domains shown)
VH: B12 VH with S28T, S30I
notes: as for B7
B29: anti-PSMA heavy-chain antibody clone ID 325940 (antibody, V domains shown)
VH: B12 VH with S28I, S30R, L45P, G47W, R58K
notes: as for B7
B30: anti-PSMA heavy-chain antibody clone ID 345485 (antibody, V domains shown)
VH: B12 VH with S30R, G47W, R58K, L79M
notes: as for B7
B31: anti-PSMA heavy-chain antibody clone ID 326027 (antibody, V domains shown)
VH: B12 VH with S30R, G47W, R58K, E107D, Y112D
notes: as for B7
B32: anti-PSMA heavy-chain antibody clone ID 325742 (antibody, V domains shown)
VH: B12 VH with G47W, R58K, N74Y, Y112D
notes: as for B7
B33: anti-PSMA heavy-chain antibody clone ID 345482 (antibody, V domains shown)
VH: B12 VH with N74S
notes: as for B7
B34: anti-PSMA heavy-chain antibody clone ID 345490 (antibody, V domains shown)
VH: B12 VH with V11L, Q13K, R16G
notes: as for B7
B35: anti-PSMA heavy-chain antibody clone ID 345497 (antibody, V domains shown)
VH: B12 VH with S31R
notes: heavy chain-only antibody (UniAb/HCAb); also called HCAb 345497
B36: anti-PSMA heavy-chain antibody clone ID 345509 (antibody, V domains shown)
VH: B12 VH with V11L, R16G, R58K, L79M
notes: as for B7
B37: anti-PSMA heavy-chain antibody clone ID 325836 (antibody, V domains shown)
VH: B12 VH with S30R, G47W, R58K, N74Y, E107D, Y112D
notes: as for B7
B38: anti-PSMA heavy-chain antibody clone ID 326084 (antibody, V domains shown)
VH: B12 VH with E107D
notes: as for B7
B39: anti-PSMA heavy-chain antibody clone ID 345436 (antibody, V domains shown)
VH: B12 VH with S31R, R58K
notes: as for B7
B40: anti-PSMA heavy-chain antibody clone ID 345461 (antibody, V domains shown)
VH: B12 VH with S30T
notes: as for B7
B41: anti-PSMA heavy-chain antibody clone ID 326029 (antibody, V domains shown)
VH: B12 VH with S31R, G47W, W52S, R58K, I102V, S108T
notes: as for B7

How the values were obtained:
[1] = biological target: T1, human B-cell maturation antigen (BCMA); assay: ELISA protein and cell-binding assays
[2] = biological target: T2, human PSMA (Prostate Specific Membrane Antigen, Glutamate Carboxypeptidase II) (human, UniProt Q04609 1-750); assay: flow cytometry on LNCaP cells
T2 construct: whole, on cells; the cell line is named under assay; also called FOLH1
Protocol: Briefly, 50,000 target cells were stained with a dilution series of purified UniAbs™ for 30 minutes at 4° C. Following incubation, the cells were washed twice with flow cytometry buffer (1×PBS, 1% BSA, 0.1% NaN₃) and stained with goat F(ab′)₂ anti-human IgG conjugated to R-phycoerythrin (PE) (Southern Biotech, cat. #2042-09) to detect cell-bound antibodies. After a 20-minute incubation at 4° C., the cells were washed twice with flow cytometry buffer and the mean fluorescence intensity (MFI) was measured by flow cytometry. The MFI of cells stained with secondary antibody alone were used for determination of background signal and binding of each antibody was converted to fold over background. Binding to cynomolgus PSMA positive cells was determined using the same protocol with the following modifications: the target cells were from Freestyle 293-F cells (ThermoFisher R79007) transiently transfected to express the extracellular domain of cynomolgus PSMA. In some experiments EC50 values were calculated using GraphPad Prism 7.
Column 1 indicates the clone ID of the HCAb. Column 2 indicates binding to LNCaP cells measured as fold over the background MFI signal.

T2 sequence (Q04609 whole entry): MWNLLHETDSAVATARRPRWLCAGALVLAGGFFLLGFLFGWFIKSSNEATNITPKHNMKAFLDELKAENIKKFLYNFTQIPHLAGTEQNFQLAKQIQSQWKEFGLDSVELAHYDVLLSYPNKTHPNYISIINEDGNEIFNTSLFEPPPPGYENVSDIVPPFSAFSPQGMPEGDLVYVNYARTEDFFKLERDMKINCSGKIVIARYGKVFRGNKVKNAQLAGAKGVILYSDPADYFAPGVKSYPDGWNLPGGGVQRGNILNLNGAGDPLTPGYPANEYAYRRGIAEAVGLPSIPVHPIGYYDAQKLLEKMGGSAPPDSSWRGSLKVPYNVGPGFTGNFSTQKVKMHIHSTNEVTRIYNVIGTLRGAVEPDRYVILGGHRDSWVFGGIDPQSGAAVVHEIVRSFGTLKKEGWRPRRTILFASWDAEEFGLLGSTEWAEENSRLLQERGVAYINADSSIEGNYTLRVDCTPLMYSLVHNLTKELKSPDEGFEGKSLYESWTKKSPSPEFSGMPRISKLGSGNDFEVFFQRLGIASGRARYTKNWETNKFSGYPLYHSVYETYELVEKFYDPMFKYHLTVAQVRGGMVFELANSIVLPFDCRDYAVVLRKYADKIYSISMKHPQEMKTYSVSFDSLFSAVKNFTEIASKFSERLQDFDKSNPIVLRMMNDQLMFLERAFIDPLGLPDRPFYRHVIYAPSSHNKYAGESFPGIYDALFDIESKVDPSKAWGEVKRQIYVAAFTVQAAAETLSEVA

Binder | binding result [1] | fold over the background MFI signal [2] [fold over background MFI]
B1 | binds | 
B2 | binds | 
B3 | binds | 
B4 | binds | 
B5 | binds | 
B6 | binds | 
B7 |  | 216
B8 |  | 25
B9 |  | 264
B10 |  | 282
B11 |  | 243
B12 |  | 193
B13 |  | 64
B14 |  | 23
B15 |  | 14
B16 |  | 129
B17 |  | 38
B18 |  | 55
B19 |  | 68
B20 |  | 117
B21 |  | 101

Binder | binding result [1] | fold over the background MFI signal [2] [fold over background MFI]
B22 |  | 47
B23 |  | 84
B24 |  | 22
B25 |  | 210
B26 |  | 13
B27 |  | 13
B28 |  | 59
B29 |  | 169
B30 |  | 71
B31 |  | 138
B32 |  | 200
B33 |  | 80
B34 |  | 80
B35 |  | 112
B36 |  | 37
B37 |  | 163
B38 |  | 125
B39 |  | 87
B40 |  | 102
B41 |  | 109
